Laboratory results from the supplement of paper PMC9170038.

Test system: MS2 coat protein
Experiment: apparent KD of MS2 coat protein; higher = weaker reporter binding
Conditions: Eterna round: R107; input ligand: arginine 13.2 mM
Experimental: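 RNA-MaP round R107: designed RNA switches with theophylline, tryptophan, arginine or FMN aptamers are transcribed on-chip within common flanks. They are titrated with SNAP-549-labelled MS2 coat protein in RNA-MaP buffer (100 mM Tris pH 7.5, 80 mM KCl, 4 mM MgCl2), without ligand or with the indicated ligand. Median apparent KD per design.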

| Sequence | apparent KD of MS2 coat protein [nM] |
| --- | --- |
| AAAAGUAGGUCCAAUAAAACUACAUGUGAAGGAGCGCGCGAAAGCGCAGGUAGGUCGCACAUGAGGAUCACCCAUGUCCUACAAA [MAT - Exclusion Arginine A - Mod of Eli - D6] | 39.8 |
| UUUGAUAGGACAGAUACCAGCGUGUUAUAGAACAUGAGGAUCACCCAUGUAGUGAUCAAGCGCCCUUGGCAGCUGGUUUGUUAGG [7.K] | 119 |
| UUAUUUAACGGAAGGAGCGCGGAAAUAAAAGUGGGUAAACAUGAGGAUCACCCAUGUAAACCGCAGGUAGGUCGCCGAUAUUUAU [AstrosEXyARgB#2] | 37 |
| CAUGUUAGGGCGGCCGCCACUGUGGCUACGGUACAUGAGGAUCACCCAUGUUUGUGGUUGAUCUACAGGACCGGGCCCUGACACG [Erarusge] | 127 |
| CGAAUAUAGGCUACGUGUCAUUGAGGCGAUACCAGAUUAUGCCAGAUCCCUUGGCAGCGCCAAACAUGAGGAUCACCCAUGUUCA [theeternabot_exclusion_MS2_Theo_A_38] | 23.5 |
| ACAUGAGGAUCACCCAUGUAAAUAACGGAAGGAGCGUGCAAAAGCACAGGUAGGUCGCCGAUAUAAAUAUUGGGUAAUAUAUUAU [ExyArgA#1] | 25 |
| GGUGGCGGGACUGAUACCAGCCACCACCGAUAGACCACAUGAGGAUCACCCAUGUUGGGUGGCCCUUGGCAGCAGUCUUGCUGCU [#1 Same State - Theophylline B Attempt #13 (HarryS)] | 64.1 |
| GUAAUAUACAGAAGGAGCGUGAUAGUGAGCUUGUACAACAUGAGGAUCACCCAUGUAUAAUCACAGGUAGGUCGCUGUAUAGGGU [Arg B SS t2] | 17 |
| GGGACAUGAGGAUCACCCAUGUACCGGUCCCGAGGACCGGUACGGCCGCCACUCGAUGACCUCAUAGUCUGCCUGAGCAGCAGAC [Abebeti] | 49.1 |
| AUACCGAGUGAGUCGUGUUUCUUUUCAGAUACCAGACUUUUCGUUGUCCCUUGGCAGCUGUUUUACAUGAGGAUCACCCAUGUUG [#28 Exclusion-TheophyllineA] | 16.3 |
| GGCACUCUGUAAGAUACCAGACGUCGGUGCUUACAUGAGGAUCACCCAUGUUGCUUUUUAGUCCCUUGGCAGCUUCGGAUAACCA [Oniste] | 88.6 |
| AGCCACUCGAGUGAUCCUCACGAGUGGCAACGAGGACCGGUACGGCCGCCACUCGAAUAAACAUGAGGAUCACCCAUGUAAUAAU [T''-M-T'-T-MS2] | 13.6 |
| AUGCAUAGCACGGCCGCCACUCAAAUUAAACAUGAGGAUCACCCAUGUAACAUGGAUAAAAUAAAGAGGACCGGGUGAAAUGCAA [JR_SSTryptoB_Sub010] | 26 |
| GAUGAACAUACUGAUACCAGUGUACUGACAUGAGGAUCACCCAUGUUGGGUUUUGUUGUACACCCUUGGCAGCAGAAUGUUUAUC [AstrosExyTheB#7] | 46.2 |
| UCGGGCAGAGCGGCCGCCACUGUAUGGCGUGCGGAUGACGGAACAUGAGGAUCACCCAUGUUGUUUAGGACCGGGCUUGCCGCGA [cocmullin] | 14 |
| UAAAAUAAUAAUGAUACCAGCCCUCCCUCCCGGGACAUGAGGAUCACCCAUGUCUCUCCCGGCCCUUGGCAGCAUAAAUAAUAAU [Same Stare - Theophylline B] | 12.1 |
| GGUCGCCAACAUGGGUCGGUGAAAUGGGAAGGAGCGAGCGAGAGCUCAGGUAGGUCGCCCAAACAUGAGGAUCACCCAUGUAAUA [SSArg-A #28 UUU adds V2] | 21 |
| UCACGACGGAUGGAUACCAGCGACAUGAGGAUCACCCAUGUAUGAGGAUCAGCCAUGUUAUGCCCUUGGCAGCCACGAAGGUCAU [YYYMULLIN] | 13.2 |

| Sequence | apparent KD of MS2 coat protein [nM] |
| --- | --- |
| AUAUUAAUCGGAAGGAGCGGUACAUGAGGAUCACCCAUGUGCGAAGCCAGCAGAUCCCGUUACCAGGUAGGUCGCCGAGUUAUGA [Begebe] | 23.6 |
| GAUGCACAUGAGGAUCACCCAUGUCCUGAUACCAGAACGCGACUUUUCCCUUGGCAGCAGAAUUCACUUUUUUACAUUCAUACUG [theeternabot_sameState_MS2_Theo_A_11] | 22.7 |
| AUCCAUAGCCGAAGGAGCGCAGUAGGAUGACAUGAGGAUCACCCAUGUGUGUGAUGUGGAUUGCAGGUAGGUCGCGGAGUGGGUU [Exclusion - Arginine B (Freestyle 7)] | 101 |
| GAGCUGAUGUAGAGAUUUUAUUUCUGAGAUACCAGUACAGAAAUGUACCCUUGGCAGCUCAGCUUUACAUGAGGAUCACCCAUGU [Ex Theophylline A 16] | 16.9 |
| GAUCUGUCGGGUGAUACCAGCCUCGGCACAUCUCGUGCCGAACAUGAGGAUCACCCAUGUGGCCCUUGGCAGCACAUGACAAAUC [Regebece] | 64 |
| UUAUAUAUGCGAAGGAGCGGGAAAUAUAUAUAUAUAAUCCUAACAUGAGGAUCACCCAUGUCCCAGGUAGGUCGCGCAUAUAUGG [12.E] | 74.2 |
| GGUUGGUGUGGAGACAUAUUGAUUACUGAAGGAGCGGGAAUAAACCCAGGUAGGUCGCAGAGAUCCACAUGAGGAUCACCCAUGU [!0.P] | 121 |
| GGCACAUAGUCGGCCGCCACUAGUGGGAAAUGGGAGAACAUGAGGAUCACCCAUGUAGCGUAGCCUAGGACCGGGACUAUGUGCC [Elephant] | 85.3 |
| CGAUAUGGGACGGCCGCCACUAUUAUGUAACAAAAUAAACAUGAGGAUCACCCAUGUACAUGGGAUAGGACCGGGUCCUAUAACG [#22 Same State - Tryptophan B] | 29.6 |
| UAUUUGGUGCGCGAGUGUUGGAUAAUUGAUACCAGUGAAGAAGAGCGCCCUUGGCAGCGAAUCCUAACAUGAGGAUCACCCAUGU [5.T] | 35.9 |
| UUCAGCUAGUCGGCCGCCACUAUCUGAGGAUCACCCAGGUAAUCCUAACACUGCUUCGGCAGUGGUAGGACCGGGACUAGCUGAG | 8.18 |
| ACAUUUAACUGAAGGAGCGUGAAUAACAUGAGGAUCACCCAUGUAACUUAGAUGCUUAUUUCACAGGUAGGUCGCAGACUAAUGA [JR_ExcArginiB_Sub010] | 10.4 |
| AGAUUCGACACGGCCGCCACUCGUGGAGGAUUUCCGAGUGUCGAACAUGAGGAUCACCCAUGUACGAGGACCGGGUGUUGAGUCU [XTryp B #14] | 21.1 |
| GCUAGGUCUACGGCCGCCACUAGACGUGGGUAAGACAUGAGGAUCACCCAUGUACUACGGGCGCUUAGGACCGGGUAGACCUAGC [SSTB NP+V+V2 #17 +-Same Structure] | 116 |
| ACGACGCAUAGUGAUACCAGCACAACAUGAGGAUCACCCAUGUCACAUAUGUUGUAAUAAUGCCCUUGGCAGCACUAUGCGUCAG [SSTheo B #2] | 34.6 |
| UGAGAGGGCAGAAGGAGCGACAUGAGGAUCACCCAUGUCUCCCGUUAUGGGAGUUCUUUAGGUCAGGUAGGUCGCUGGCCUCUCA [#1 Exclusion - Arginine B Attempt #9 (Inspired by Omei)] | 54 |
| ACAUGAGGAUCACCCAUGUCAGGGCACGAUACCAGCUGAUCCGGUGGCCCUUGGCAGCGUGACGUGUGGUCAUGAGGAUCACCCG [wsmullin] | 283 |
| ACAUGAGGAUCACCCAUGUUCCUCGCCGAUACCAGUGAAGAAGAACGCCCUUGGCAGCGGAAAGAGUAUUUUGGAGAUGAGGUAC [6.X] | 72.5 |
